Data taken from paper PMC6800506.

Molecular target: tau RD containing the disease-associated P301S substitution fused to either CFP or YFP (human) (UniProt P10636)
Assay: FRET or BRET; HEK293T tau biosensor cells with up to 200 nM freshly prepared, oligomeric or fibrillar Aβ, no tau seeds, no transfection reagent; FRET by flow cytometry after 48 h and after 2 weeks

- integrated FRET density (IFD): < 10
Substance: tau RD containing the disease-associated P301S substitution fused to either CFP or YFP (from UniProt P10636-8 244-372) (domain or fragment)
